{"source": "patent US20150086555A1", "binders": {"B1": {"name": "TCN-553 (5261_C18) (antibody, V domains shown)", "VH": "QVQVVQSGTEVKKPGSSVKVSCQTSGGRFMSYAITWVRQAPGQGLEWMGGIVPVFGTANYAQKFQGRVTITTDDSTRTAYMELSSLRSEDTAVYYCGFRYGSGYGFDSWGQGTLVTVSS", "VL": "EIVLTQSPGTLSLSPGERATLSCRASQSVSSSYLAWYQKKPGQAPRLLIYGASTRATGIPDRFTGSGSGTDFTLSISRLEPEDFAVYYCQHFGTSVFTFGGGTKVEIK"}, "B2": {"name": "TCN-536 (5095_N01) (antibody, V domains shown)", "VH": "QVQLQQWGAGLLKPSETLSLTCAVYGGSFSVSGYYWSWIRQPPGRGLEWIGEISHGGSTNYNPSLKSRVTISVDTTKNQFSLRLSSVTAADTAVYYCARGTDPDTEVYCRVGNCAAFDYWGQGSLVTVSS", "VL": "EIILAQSPGTLSLSPGERATLSCRASQFVSTRSLAWYQQRPGQAPRLLIYGASSRATGIPDRFSGSGSGTDFTLTISRLEPEDFAVYYCQHYGYSPRYAFGQGSKVEIK"}}, "conditions_in_all_cases": "remark: other sources report otherwise", "key": {"[1]": {"target": "recombinant homotrimeric HA A/chicken/Vietnam/NCVD-016/08 H5N1 (Influenza A virus A/chicken/Vietnam/NCVD-016/2008(H5N1))", "assay": "protein microarray, purified IgG, trimeric HA"}, "[2]": {"target": "recombinant homotrimeric HA A/Hong Kong/156/97 H5N1 (Influenza A virus A/Hong Kong/156/97 (H5N1))", "assay": "protein microarray, purified IgG, trimeric HA"}, "[3]": {"target": "recombinant homotrimeric HA A/Wisconsin/67/05 H3N2 (Influenza A virus A/Wisconsin/67/2005(H3N2))", "assay": "protein microarray, purified IgG, trimeric HA"}, "[4]": {"target": "recombinant homotrimeric HA A/Hong Kong/1073/99 H9N2 (Influenza A virus A/Hong Kong/1073/99 (H9N2))", "assay": "protein microarray, purified IgG, trimeric HA"}, "[5]": {"target": "recombinant homotrimeric HA A/Indonesia/5/05 H5N1 (Influenza A virus A/Indonesia/5/2005(H5N1))", "assay": "protein microarray, purified IgG, trimeric HA"}, "[6]": {"target": "recombinant homotrimeric HA A/Hong Kong/2108/03 H9N2 (Influenza A virus A/HK/2108/2003(H9N2))", "assay": "protein microarray, purified IgG, trimeric HA"}, "[7]": {"target": "recombinant homotrimeric HA A/California/4/09 H1N1 (Influenza A virus A/California/04/2009(H1N1))", "assay": "protein microarray, purified IgG, trimeric HA"}, "[8]": {"target": "recombinant homotrimeric HA A/northern shoveler/California/HKWF115/07 H6N4 (Influenza A virus A/northern shoveler/California/HKWF115/2007(H6N1))", "assay": "protein microarray, purified IgG, trimeric HA"}, "[9]": {"target": "recombinant homotrimeric HA A/Vietnam/1203/04 H5N1 (Influenza A virus A/VietNam/1203/2004(H5N1))", "assay": "protein microarray, purified IgG, trimeric HA"}, "[10]": {"target": "recombinant homotrimeric HA A/Solomon Islands/3/06 H1N1 (Influenza A virus A/Solomon Islands/3/2006(H1N1))", "assay": "protein microarray, purified IgG, trimeric HA"}, "[11]": {"target": "recombinant homotrimeric HA A/Netherlands/219/03 H7N7 (Influenza A virus A/Netherlands/219/03(H7N7))", "assay": "protein microarray, purified IgG, trimeric HA"}, "[12]": {"target": "recombinant homotrimeric HA A/Egypt/3300-NAMRU3/08 H5N1 (Influenza A virus A/Egypt/3300-NAMRU3/2008(H5N1))", "assay": "protein microarray, purified IgG, trimeric HA"}, "[13]": {"target": "recombinant homotrimeric HA A/Anhui/1/05 H5N1 (Influenza A virus A/Anhui/1/2005(H5N1))", "assay": "protein microarray, purified IgG, trimeric HA"}, "[14]": {"target": "recombinant homotrimeric HA A/Japan/305/57 H2N2 (Influenza A virus A/Japan/305/1957(H2N2))", "assay": "protein microarray, purified IgG, trimeric HA"}, "[15]": {"target": "recombinant homotrimeric HA A/South Carolina/1/18 H1N1 (Influenza A virus A/South Carolina/1/18 (H1N1))", "assay": "protein microarray, purified IgG, trimeric HA"}, "[16]": {"target": "recombinant soluble homotrimeric HA of A/Anhui/1/05 (H5N1) (Influenza A virus A/Anhui/1/2005(H5N1))", "assay": "HA microarray, BCC supernatant"}, "[17]": {"target": "recombinant soluble homotrimeric HA of A/Netherlands/219/03 (H7N7) (Influenza A virus A/Netherlands/219/03(H7N7))", "assay": "HA microarray, BCC supernatant"}, "[18]": {"target": "recombinant soluble homotrimeric HA of A/Wisconsin/67/05 (H3N2) (Influenza A virus A/Wisconsin/67/2005(H3N2))", "assay": "HA microarray, BCC supernatant"}, "[19]": {"target": "recombinant soluble homotrimeric HA of A/Solomon Islands/3/06 (H1N1) (Influenza A virus A/Solomon Islands/3/2006(H1N1))", "assay": "HA microarray, BCC supernatant"}, "[20]": {"target": "recombinant soluble homotrimeric HA of A/California/4/09 (H1N1) (Influenza A virus A/California/04/2009(H1N1))", "assay": "HA microarray, BCC supernatant"}, "[21]": {"target": "recombinant soluble homotrimeric HA of A/swine/Ontario/01911-2/99 (H4N6) (Influenza A virus A/Swine/Ontario/01911-2/99 (H4N6))", "assay": "HA microarray, BCC supernatant"}, "[22]": {"target": "recombinant soluble homotrimeric HA of A/Indonesia/5/05 (H5N1) (Influenza A virus A/Indonesia/5/2005(H5N1))", "assay": "HA microarray, BCC supernatant"}, "[23]": {"target": "recombinant soluble homotrimeric HA of A/duck/Yangzhou/02/05 (H8N4) (Influenza A virus A/duck/Yangzhou/02/2005(H8N4))", "assay": "HA microarray, BCC supernatant"}, "[24]": {"target": "recombinant soluble homotrimeric HA of A/northern shoveler/California/HKWF115/07 (H6) (Influenza A virus A/northern shoveler/California/HKWF115/2007(H6N1))", "assay": "HA microarray, BCC supernatant"}, "[25]": {"target": "recombinant soluble homotrimeric HA of A/Japan/305/57 (H2N2) (Influenza A virus A/Japan/305/1957(H2N2))", "assay": "HA microarray, BCC supernatant"}, "[26]": {"target": "recombinant soluble homotrimeric HA of A/Vietnam/1203/04 (H5N1) (Influenza A virus A/VietNam/1203/2004(H5N1))", "assay": "HA microarray, BCC supernatant"}, "[27]": {"target": "recombinant soluble homotrimeric HA of A/chicken/Vietnam/NCVD-016/08 (H5N1) (Influenza A virus A/chicken/Vietnam/NCVD-016/2008(H5N1))", "assay": "HA microarray, BCC supernatant"}, "[28]": {"target": "recombinant soluble homotrimeric HA of A/Hong Kong/2108/03 (H9N2) (Influenza A virus A/HK/2108/2003(H9N2))", "assay": "HA microarray, BCC supernatant"}}, "data": [{"binder": "B1", "values": [{"measurement": "Trimeric HA Binding: RLU", "setting": "[1]", "result": 12400, "unit": "RLU"}, {"measurement": "Trimeric HA Binding: RLU", "setting": "[2]", "result": 24000, "unit": "RLU"}, {"measurement": "Trimeric HA Binding: RLU", "setting": "[3]", "result": 197, "unit": "RLU"}, {"measurement": "Trimeric HA Binding: RLU", "setting": "[4]", "result": 6690, "unit": "RLU"}, {"measurement": "Trimeric HA Binding: RLU", "setting": "[5]", "result": 26000, "unit": "RLU"}, {"measurement": "Trimeric HA Binding: RLU", "setting": "[6]", "result": 172, "unit": "RLU"}, {"measurement": "Trimeric HA Binding: RLU", "setting": "[7]", "result": 25100, "unit": "RLU"}, {"measurement": "Trimeric HA Binding: RLU", "setting": "[8]", "result": 20200, "unit": "RLU"}, {"measurement": "Trimeric HA Binding: RLU", "setting": "[9]", "result": 27200, "unit": "RLU"}, {"measurement": "Trimeric HA Binding: RLU", "setting": "[10]", "result": 24600, "unit": "RLU"}, {"measurement": "Trimeric HA Binding: RLU", "setting": "[11]", "result": 499, "unit": "RLU"}, {"measurement": "Trimeric HA Binding: RLU", "setting": "[12]", "result": 24600, "unit": "RLU"}, {"measurement": "Trimeric HA Binding: RLU", "setting": "[13]", "result": 9030, "unit": "RLU"}, {"measurement": "Trimeric HA Binding: RLU", "setting": "[14]", "result": 25700, "unit": "RLU"}, {"measurement": "Trimeric HA Binding: RLU", "setting": "[15]", "result": 20600, "unit": "RLU"}, {"measurement": "Trimeric HA Binding: RLU", "setting": "[16]", "result": 12600, "unit": "RLU"}, {"measurement": "Trimeric HA Binding: RLU", "setting": "[17]", "result": 1840, "unit": "RLU"}, {"measurement": "Trimeric HA Binding: RLU", "setting": "[18]", "result": 20000, "unit": "RLU"}, {"measurement": "Trimeric HA Binding: RLU", "setting": "[19]", "result": 16300, "unit": "RLU"}, {"measurement": "Trimeric HA Binding: RLU", "setting": "[20]", "result": 20300, "unit": "RLU"}, {"measurement": "Trimeric HA Binding: RLU", "setting": "[21]", "result": 2580, "unit": "RLU"}, {"measurement": "Trimeric HA Binding: RLU", "setting": "[22]", "result": 24400, "unit": "RLU"}, {"measurement": "Trimeric HA Binding: RLU", "setting": "[23]", "result": 28000, "unit": "RLU"}, {"measurement": "Trimeric HA Binding: RLU", "setting": "[24]", "result": 21700, "unit": "RLU"}, {"measurement": "Trimeric HA Binding: RLU", "setting": "[25]", "result": 25500, "unit": "RLU"}, {"measurement": "Trimeric HA Binding: RLU", "setting": "[26]", "result": 6560, "unit": "RLU"}, {"measurement": "Trimeric HA Binding: RLU", "setting": "[27]", "result": 24200, "unit": "RLU"}]}, {"binder": "B2", "values": [{"measurement": "Trimeric HA Binding: RLU", "setting": "[1]", "result": 419, "unit": "RLU"}, {"measurement": "Trimeric HA Binding: RLU", "setting": "[2]", "result": 732, "unit": "RLU"}, {"measurement": "Trimeric HA Binding: RLU", "setting": "[3]", "result": 24700, "unit": "RLU"}, {"measurement": "Trimeric HA Binding: RLU", "setting": "[7]", "result": 298, "unit": "RLU"}, {"measurement": "Trimeric HA Binding: RLU", "setting": "[8]", "result": 114, "unit": "RLU"}, {"measurement": "Trimeric HA Binding: RLU", "setting": "[9]", "result": 749, "unit": "RLU"}, {"measurement": "Trimeric HA Binding: RLU", "setting": "[11]", "result": 186, "unit": "RLU"}, {"measurement": "Trimeric HA Binding: RLU", "setting": "[12]", "result": 4710, "unit": "RLU"}, {"measurement": "Trimeric HA Binding: RLU", "setting": "[13]", "result": 8860, "unit": "RLU"}, {"measurement": "Trimeric HA Binding: RLU", "setting": "[14]", "result": 771, "unit": "RLU"}, {"measurement": "Trimeric HA Binding: RLU", "setting": "[15]", "result": 160, "unit": "RLU"}, {"measurement": "Trimeric HA Binding: RLU", "setting": "[16]", "result": 543, "unit": "RLU"}, {"measurement": "Trimeric HA Binding: RLU", "setting": "[17]", "result": 976, "unit": "RLU"}, {"measurement": "Trimeric HA Binding: RLU", "setting": "[18]", "result": 35000, "unit": "RLU"}, {"measurement": "Trimeric HA Binding: RLU", "setting": "[20]", "result": 151, "unit": "RLU"}, {"measurement": "Trimeric HA Binding: RLU", "setting": "[21]", "result": 79, "unit": "RLU"}, {"measurement": "Trimeric HA Binding: RLU", "setting": "[23]", "result": 436, "unit": "RLU"}, {"measurement": "Trimeric HA Binding: RLU", "setting": "[28]", "result": 1570, "unit": "RLU"}, {"measurement": "Trimeric HA Binding: RLU", "setting": "[24]", "result": 2210, "unit": "RLU"}, {"measurement": "Trimeric HA Binding: RLU", "setting": "[25]", "result": 121, "unit": "RLU"}, {"measurement": "Trimeric HA Binding: RLU", "setting": "[26]", "result": 146, "unit": "RLU"}, {"measurement": "Trimeric HA Binding: RLU", "setting": "[27]", "result": 287, "unit": "RLU"}]}]}
